This is an account of results in US20230235029A1 (INTEGRATED BIOTHERAPEUTICS, published 2023).

Changes are numbered by the printed parent chain.

The chains are these.
B1: R13 (antibody, V domains shown)
VH: EVQLVESGAGLVQPGGSLRLSCAASGFTFSNSWMTWVRQAPGKGLEWLARIKRKADGETADYAASVKGRFTISRDDSKNTLYLQMNSLKTEDTAVYYCTTYNWNFNFDFWGQGVLVTVSS
VL: DIQMTQSPSSLSASVGDRVTITCRASQDISPYLNWYQQKPGKAPKLLIYYGNRLESGVPSRFSGSGSGTDLTLTISSLQPEDFATYYCQQYYRLPLTFGGGTKVETK
B2: R25 (antibody, V domains shown)
VH: B1 VH with L48V, A49G, F109H
VL: B1 VL with T106I
B3: R15 (antibody, V domains shown)
VH: B1 VH with Q13R, S32T, K43R, N79H, Y82F, F109N
VL: B1 VL with D28A, I29F, P31S, G51A, G66E, D70E, L71F, T106I
B4: R29 (antibody, V domains shown)
VH: B1 VH with A23I, K43R, L48I, F109Y
VL: B1 VL with T106I
B5: R39 (antibody, V domains shown)
VH: B1 VH with A24G, S32T, L48V, F109Y
VL: B1 VL with T106I
B6: R24 (antibody, V domains shown)
VH: B1 VH with A24G, S32T, L48V, N79S, F109Y
VL: B1 VL with T106S
B7: R50 (antibody, V domains shown)
VH: QVQLQESGPGLVKPSETLSLTCAVSGDSISSYWWNWIRQPPGKGLEWIGEIYGYSGSTNYNASLKSRVTISKDASKKQLSLKLSSVTAADTAVYYCARDPLNQDAFDFWGLGLRVTVSS
VL: QSALTQPPSVSGSPGQSVTISCTGTSSDIGGYTYVSWYQQHPGKAPKLMIYDVSRRPSGVSDRFSGSKSGNTASLTISGLQAEDEADYYCSSYAGRNALLFGGGTRLTVL
B8: R63 (antibody, V domains shown)
VH: QVQLQESGPGLVKASETLSLTCAVSGASISSYWWNWIRLSPGKGLEWIGEIYGYSGSTSYNSSLKSRVSISRDASKNQFSLKLSSVTAADTAVYYCARDPLNHDAFDFWGRGFRVTVSS
VL: B7 VL with T23A, S54N, R55E, R96S, N97K, A98T, L99V, L100S, T108S
B9: R55 (antibody, V domains shown)
VH: B7 VH with A62P
VL: B7 VL
B10: R83 (antibody, V domains shown)
VH: B7 VH with D27A, S31D, N59Y, A62P, K82R, S84T, V93I
VL: B7 VL with V35I, H41Y, R55K, I77V, A94G, N97K, A98T
B11: R64 (antibody, V domains shown)
VH: B7 VH with D27A, I29M, S31D, T58S, N59Y, A62P, T69S
VL: QSALTQPPSVSGSPGLSVTISCTGSGSDIGGYDYVSWYQQHPGKAPKLMIYGVNKRPSGVSDRFSGSKSGNTASLSISGLQAEDEADYYCSSYAGSHTLLFGGGSRLTVL
B12: R53 (antibody, V domains shown)
VH: B7 VH with D27A, N59Y, N61S, A62P, K77N, L79F, V86A, A97V, L111Q
VL: B7 VL with G31S, T33D, I50M, R55K, S61F, E83D, D87A, Y89F, N97R, A98I
B13: R18 (antibody, V domains shown)
VH: B8 VH with N61K, S84T, F113L
VL: B7 VL with T23A, S54N, R55E, K68I, R96S, N97K, A98T, L99V, T108S
B14: R45 (antibody, V domains shown)
VH: EVQLVESGGGLAKPGGSLRLSCAASGFTFGDHWMSWVRQAPGNGLQWISAIDRAGGSTFYADSVKGRFTISRENAKNTLYLQIDSLRPEDTAVYFCARDQGRTVGYLDYWGQGVLVTVSS
VL: QSALTQPRSVSGSPGQSVTISCTGTSSDIGSYTYVSWYRQHPGTAPKLIIYDVDERPSGVSYRFSGSKSGNTASLTISGLQAEDEADYYCSSYAGRNTWVFGGGTRLTVL
B15: R80 (antibody, V domains shown)
VH: EVQLVESGGGLAKPGGSLRLSCAASGFTFNDYWLFWVRQAPGRGLEWISTINRPGSSTFYADSVKGRFTISRENANNALYLQMDSLRPEDTAVYYCARDQGRTVGYLDYWGQGVLVTVSS
VL: B14 VL with T33S, R39Q, V53D, D54S, Y62D, R96S
B16: R79 (antibody, V domains shown)
VH: B15 VH
VL: B14 VL with T33S, R39Q, V53D, D54S, Y62D, R96S

One test deals with T1, Marburg virus Angola GP on rVSV pseudotype (Marburg virus, Angola strain, UniProt Q1PD50 19-681).
T1 sequence: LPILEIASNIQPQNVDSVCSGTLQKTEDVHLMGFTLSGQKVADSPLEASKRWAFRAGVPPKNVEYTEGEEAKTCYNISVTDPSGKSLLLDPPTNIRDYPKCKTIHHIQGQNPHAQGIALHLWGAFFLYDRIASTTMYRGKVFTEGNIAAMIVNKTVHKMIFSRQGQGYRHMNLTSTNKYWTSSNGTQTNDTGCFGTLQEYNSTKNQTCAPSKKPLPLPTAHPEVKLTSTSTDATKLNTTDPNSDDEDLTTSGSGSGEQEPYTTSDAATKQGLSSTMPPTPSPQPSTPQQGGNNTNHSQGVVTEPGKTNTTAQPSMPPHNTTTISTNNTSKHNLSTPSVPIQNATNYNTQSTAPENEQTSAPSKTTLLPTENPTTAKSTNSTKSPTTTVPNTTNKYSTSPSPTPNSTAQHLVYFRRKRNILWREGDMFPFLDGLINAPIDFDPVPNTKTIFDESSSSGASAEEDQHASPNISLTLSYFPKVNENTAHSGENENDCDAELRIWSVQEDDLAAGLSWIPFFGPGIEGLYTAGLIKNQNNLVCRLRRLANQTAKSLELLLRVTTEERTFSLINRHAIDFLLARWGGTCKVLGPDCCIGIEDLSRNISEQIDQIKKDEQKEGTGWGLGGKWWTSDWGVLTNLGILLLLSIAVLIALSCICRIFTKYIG
Put plainly: cell-based or functional assay.
In turn, B1 registered an NT50 of 0.03 µg/mL.
Still for that read-out and setting: the value for B2 was 0.03 µg/mL; that for B3 was 0.04 µg/mL.
The same measure, in the same setting: with B4 the figure was 0.02 µg/mL; with B5, 0.03 µg/mL; with B6, 0.04 µg/mL.
Same read-out and setting: the value for B7 was 0.05 µg/mL; that for B8 was 0.04 µg/mL; that for B9 was 0.07 µg/mL.
The molecule B10 displayed an NT50 of 0.03 µg/mL.
In turn, B11 yielded an NT50 of 0.02 µg/mL.
On the same count and under the same terms, with B12 the figure was 0.02 µg/mL; with B13, 0.04 µg/mL; with B14, 0.1 µg/mL.
On the same count and under the same terms, the value for B15 was 0.26 µg/mL; that for B16 was 0.21 µg/mL.

For the next test, the target named is T2, RAVV GP on rVSV pseudotype (VSV-MARV RAVV GP) (Ravn virus, UniProt Q1PDC7 19-681).
T2 sequence: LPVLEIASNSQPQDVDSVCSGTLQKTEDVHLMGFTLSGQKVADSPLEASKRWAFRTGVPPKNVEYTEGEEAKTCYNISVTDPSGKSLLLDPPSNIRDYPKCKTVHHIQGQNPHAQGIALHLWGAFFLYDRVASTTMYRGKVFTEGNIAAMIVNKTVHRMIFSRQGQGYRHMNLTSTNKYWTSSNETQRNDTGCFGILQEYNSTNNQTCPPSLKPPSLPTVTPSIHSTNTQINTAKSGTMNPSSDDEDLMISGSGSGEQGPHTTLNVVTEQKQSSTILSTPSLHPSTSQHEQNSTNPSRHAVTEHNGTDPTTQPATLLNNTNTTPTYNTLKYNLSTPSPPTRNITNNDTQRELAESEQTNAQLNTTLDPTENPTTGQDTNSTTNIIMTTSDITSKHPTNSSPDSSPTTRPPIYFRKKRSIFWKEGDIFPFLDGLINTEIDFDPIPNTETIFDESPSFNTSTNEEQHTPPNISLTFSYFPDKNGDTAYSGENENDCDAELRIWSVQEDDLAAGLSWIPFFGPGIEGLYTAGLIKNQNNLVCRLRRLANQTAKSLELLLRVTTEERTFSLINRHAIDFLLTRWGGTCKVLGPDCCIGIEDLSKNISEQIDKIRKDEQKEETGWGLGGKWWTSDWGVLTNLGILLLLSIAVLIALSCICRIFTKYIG
Put plainly: cell-based or functional assay.
The molecule B1 displayed an NT50 of 0.07 µg/mL.
The same measure, in the same setting: the value for B2 was 0.04 µg/mL.
On to B3, for which the NT50 is 0.08 µg/mL.
For B4, the NT50 stood at 0.03 µg/mL.
In the case of B5, the NT50 was 0.07 µg/mL.
The same measure, in the same setting: the value for B6 was 0.06 µg/mL; that for B7 was 0.21 µg/mL.
Still for that read-out and setting: the value for B8 was 0.17 µg/mL.
With B9, the NT50 came out at 0.24 µg/mL.
Same read-out and setting: the value for B10 was 0.17 µg/mL.
Same read-out and setting: the value for B11 was 0.09 µg/mL; that for B12 was 0.07 µg/mL; that for B13 was 0.18 µg/mL.
Still for that read-out and setting: the value for B14 was 0.27 µg/mL; that for B15 was 0.3 µg/mL; that for B16 was 0.45 µg/mL.

The next test addresses T3, Marburg virus Musoke GP on rVSV pseudotype (VSV-MARV Musoke GP) (Marburg virus, Musoke strain, UniProt P35253 19-681).
T3 sequence: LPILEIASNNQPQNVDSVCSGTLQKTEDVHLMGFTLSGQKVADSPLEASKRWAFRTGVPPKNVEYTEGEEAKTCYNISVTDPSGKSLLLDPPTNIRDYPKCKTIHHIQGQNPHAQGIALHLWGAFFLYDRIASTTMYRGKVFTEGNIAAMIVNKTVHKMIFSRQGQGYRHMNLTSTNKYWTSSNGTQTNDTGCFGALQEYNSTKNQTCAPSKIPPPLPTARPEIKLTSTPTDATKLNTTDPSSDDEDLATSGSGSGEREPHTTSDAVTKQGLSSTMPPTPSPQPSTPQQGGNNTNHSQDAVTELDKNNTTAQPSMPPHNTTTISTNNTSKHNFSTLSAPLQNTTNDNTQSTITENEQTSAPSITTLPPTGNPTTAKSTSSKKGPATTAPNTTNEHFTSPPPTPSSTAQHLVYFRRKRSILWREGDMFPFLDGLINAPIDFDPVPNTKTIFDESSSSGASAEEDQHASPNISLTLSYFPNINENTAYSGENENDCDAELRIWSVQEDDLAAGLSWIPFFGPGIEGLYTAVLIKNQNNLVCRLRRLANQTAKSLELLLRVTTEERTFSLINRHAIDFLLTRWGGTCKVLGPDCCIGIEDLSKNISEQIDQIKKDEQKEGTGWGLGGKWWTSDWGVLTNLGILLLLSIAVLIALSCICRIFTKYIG
Description: cell-based or functional assay.
In turn, B1 registered an NT50 of 0.03 µg/mL.
Same read-out and setting: the value for B2 was 0.01 µg/mL; that for B3 was 0.03 µg/mL; that for B4 was 0.02 µg/mL.
Consider B5, for which the NT50 stood at 0.04 µg/mL.
Turning to B6, the NT50 turned out to be 0.03 µg/mL.
Take B7: the NT50 is 0.06 µg/mL.
B8 registered an NT50 of 0.05 µg/mL.
Same read-out and setting: the value for B9 was 0.07 µg/mL; that for B10 was 0.05 µg/mL.
On the same count and under the same terms, the value for B11 was 0.03 µg/mL; that for B12 was 0.02 µg/mL.
The same measure, in the same setting: with B13 the figure was 0.09 µg/mL; with B14, 0.1 µg/mL.
B15: the NT50 stood at 0.21 µg/mL.
With B16, the NT50 is 0.17 µg/mL.
